# Reference: the DeepSol protein solubility set
# Experiment: soluble on expression in E. coli; label from the status in PepcDB or PDB records
row,Sequence,soluble on expression in E. coli
1,MISLPSGTRIWLVAGVTDMRKSFNGLGEQVQHVLDETPFSGHLFIFRGRRGDTVKILWADADGLCLFTKRLEEGQFIWPAVRDGKVSITRSQLAMLLDKLDWRQPKTFRLNSLTML,not soluble
2,MKIEELIAIRRDLHRIPELGFQEFKTQQYLLNVLEQYPQDRIEIEKWRTGLFVKVNGTAPEKMLAYRADIDALSIEEQTGLPFASEHHGNMHACGHDLHMTIALGIIDHFVHHPVKHDLLFLFQPAEEGPGGAEPMLESDVLKKWQPDFITALHIAPELPVGTIATKSGLLFANTSELVIDLEGKGGHAAYPHLAEDMVVAASTLVTQLQTIISRNTDPLDSAVITVGTITGGSAQNIIAETAHLEGTIRTLSEESMKQVKERIEDVVKGIEIGFRCKGKVTYPSVYHQVYNTSGLTEEFMSFVAEHQLATVIEAKEAMTGEDFGYMLKKYPGFMFWLGADSEHGLHHAKLNPDENAIETAVHVMTGYFSVYAN,not soluble
3,MSLGTPVTLRMDTTDADGRITLGDLFDGVSGPAANVVVAARMSATAVLEAGQVQMSARRAGYVWTNANGVRRIIVREGVDNGGVSSSAAPGAQLAGARLAGAPRANVEVLPYARSLSAGEIVQPQDLIWVKMAGAPADAPRDADAVIGLAAKRPLREGAPVGMKDVAAAQVIKSGDLITITYEDGGISLSLQGKAMAAAAAGDVFAVQNTLSKKIIQAVAVGPGAAAVGPQEGHHHHHH,not soluble
4,MSPFGKIAIVGSGLVGSSWATIFASSGYEVQMYDISEKQLQVALENVEKNLRKLDEHGLQRGNLSADEALLRVSTTTSLNEVMKNAIYMQESALEDLNFRIQFYKVIDEIADPTTILASSTSTIPASKFTDGLINKERCLIVHPVNPPLFLPLTELVPAPWTSQDTVDRAAEIMRSVKQEPVKLKKEVLGFVVNRLQFALLAETWRLVADGVIGVNDVDAVMSAGLGPRYAFNGTCETVHLNAFGVRDYFKRYAAGITAVLKDMGPIPDFTDEKVINKLEEELEPKMSTLNIRKHQAEREEKLVEIAKLKKDLNL,not soluble
5,MDAIITGESERIGLSVIDNNDVEHLIETNESGEITYHEQDGYPDDSSKRTDEGNEYVNQARKYAKYYVYLKRGYDTVSAPENPVRIDAVRQAIAQMDLETFETHFGDLYQQFSSETDGSAEPVYDVPPQATTPPIYAQNVYLGIDPLETDLGDELAAKHDLDITAESAADVAIADLSTEEIKQWGEFTGEFATRAIEEQIDLSDAVYIDNTSQLYVKHPEGTDLVAADDHLEPTSREPDTVIELLPIELESLEYFQSFMDHYLRCQIRDVFIEMGVVPPEEFRVLGLGQFMAAHCYSYIDFYPEFHNPESGAFTQQTSLF,not soluble
6,MGSDKIHHHHHHMKIRYGIIGVGGHGKNRHLIPLIKLKNKVEIVAVADVKKERCEEVSSQFNIKCYLDYMEMVEKESLNAVSIVTPTGLHSRIAINVLNKGVNVLVDKPLGSNLEEVKEVVNTARNKGLKLMVGYWSRFSPALQYGKEIIHNGLLGEPYVAYGYLVRRRGIPGIPTFIDKTLSGGRGALLDIGCYLIDNLLSLLKFRKPISVMGKVYTKFGNVKEEVKFNWGSWDPENFSLDDYAVGLVKLEGDVSLILEVGWSANVSHVEEKSYVRILGDKGGIEGSGHEAIVDISFHSRTENFLTDTKPVLRKVDPYFEMINAFVDSILTDREPPITGEESVTLHSIIDGIYKSSTEDKEVKISL,not soluble
7,MCPFDVLASVKDDPSLSPQLREKIGGALTRLREICKTADQPSVAKALPRSCAHNYFKEMISGHAPLRFSCHSSESTHTRVKHFDIASSRLPGPIVMSSSKTLMQRTTPALQSPKEIFAELNVIAFQTLRYIDEVEQIEFDVTNVREHDGSIMEDKERLFLSVCCSVFANFSFFASLHINAEKFLHFLRKLFTCYPLDNSYHNATHAADALQMMSLFFREPTVNFLFSDEEIAICFLAVLAVDVAHPGASDTLLVALDHPLASVFGDVAITEHASLLVLTSLLVLEDNFFFSTPDMAVSVDSAHLLKEALYDVVLNAALRSRPSLMSALRDIETSGRITDADAPKLMAALLVMACNSFAFRSQAQCCRMGAWFLSELHREECEMERHGIRVTLPHVAGADCAAVLSDYINVVVKPVTAATLALVPRDLQDRLEWNADLVDAAASTGGRACKVVVENSLVQWMTSSLSVMEILKKVATHASSVDRKASKCAILNASPSRSQGTAPDMMRADSLSSNSSTSGSMSAAKRDEATSNCPQLSFTSEPCSAAGSPTARPGRSEHYFSFLRLYDKCERAGESAKNFVGQLIFLALQLDPRYIAAYARKEYGDDCCGAECAEMGLLISKMEEAPSTAEVIASRPPGGSFSNRVADEIDHTDSFVLLLMDMYCSREAALAEMESVVLVSDKAKTPPPAEPAAPKAVPQFQQNSPIRMPVNTESKNTGPRLRLVP,not soluble
8,MGSDKIHHHHHHMARGYIAKKLLVEGKDDLRVIPELIEKNGIVWGNNKKEAIVTIEDYGGYTNINSDLVSTELQASGLTHLGLMVDADDKPQTRWQSIREACLDSILDIPEEIPTTGLIHTTNTGIKFGVWIMPDNLMQGMLETFLAYMIPDESEPLWMYAQEVVAEAKIKGASFIDARIDKAKIHTWLAWQEEPGR,not soluble
9,MPYYVYLLACGKHGTLYLGVTNDLVRRVHEHRSKATPGFSEHYGVGRLVWFEIYHDAITAITREKQLKKWRRDWKVRLIENQNPDWVDLYPGICR,not soluble
10,MREHTLKNGMKLLMVERHTSPTVAAWIRFRVGSVDERSDERGIAHLLEHMLFKGTKTLGTKDYAAEKPLLDKIEETAQALIAEKAKGARADAGRVDELGKKLNALEADAGKYVIKEEFAEIYARNGGAGYNAMTGKDGTTYLINMPSNKLELWAAIEGDRMQNAVLREFYTERDVVMEERRRSYDTEPGSKLWETFVAVTYNAHPYGQPIIGWMSDLENLTRTKAEEFFRRYYKPNNAIVALVGDIDPDKTIALVEKYFGDIPPGTLVGPVAVVEPAQQGERRVEILADAEPELLVGFHKPTLPNPDDYVFDVIDMILADGRTSRLYKKLVVEKQLAAEVSTFSAPGSRYPNLFVLAATPRAPHTAKEVEDAIYEELERLKKEPMTERELAQILNRLEYEESRQMISNGGLARNLTEYEAVTGSWRYLIEHRKEVAKVTPDDVIRVARKYFVRENRTVGVITKKEDVK,not soluble
11,MAQLQKDAQENECRELIEVPSGHDYQIRQYIEKYPQFLWKYSEGVTIPGYVLNIAEQLNSEYGNVENIPIDLYPCEYYRIVEHSMPTDIGLQPKRFDRIKENLTEKLQQVFRHQDADLYMPENHLIPTVACAVCIQGTWYRGKIENVPPRGIWMYVNLIDAGMSRQVMKSDVRRLPLAFGHYPPMVVKATIRGAVIHRMDRGKVDQFQNMIRNIDYLARCQITTCTEPFQIVLCHPKYEFMNMCSFLLAPRRGQPSQEGVWIPREIAKQLERENGFERNDYDDSGADSDFLEDEEEEDAGWDYGEGDDYAYLRSFPPACKIFRMSEDEFMVERIENERIIYLTSKDMLERRREAEEYLTKEKESLESLPDVWMAYGTSCSVFHQGTMKRASCCGEEGSTIQLLLIDYGISIEVSKSDVYNIPNKDEVNMEPFVTLVSIKSFPFIHYSRVKILQELLPRGTPVKFHRDRKCKEIPTKGEIYQMNGTSVEQSVSEIVSSCQLDLECNSLLPSRIANNELTQLLAYCINYEFMYKSPNVVIYKKSKRVKSHF,not soluble
12,MGVNGAAGRSPGPKAVKPASVAIAVDYAMLTHEQAAVCAMRHERIDINPEVMGGKPVVRGTRIPVEMILRKLGAGLSTAEIIADHPRLTADDILAVQTFAADYLADQDVIFG,not soluble
13,MQYKGQGFQPVAEKSAIAHAKKYREEYEKLGEQFFKDNFSLNVKATNVVGSGDGVEVYVHCDDHDIVFNASIPFDKEAIHEEGSMRSNDNGDTMSNMVGTVLSGFEYKAQKEKYDNLTKFFKDNEEKYQYTGFTKEAIHKTQNVGYQNEYYYLAGNVTNINNYRKYYEPLIKKDSKNFKEGMKKANEATNFKAKIEVVSTLFSTKSDFTKNNSKKDLLFLSDDLYHYKEKPENTNITLQLSEPKINSTRAFYDANNPLEYGVHKHELEHHHHHH,not soluble
14,MLPFDPSTRYDRQVRLWGEEGQASIGSTSACVLGSDSLATEILKSLVLAGVQSFYVVDDAKVEQADIGQNFFLHADDIGRSRAEATLEKLTELNPSVSGSASSQPPTALAMEDVEKLTTFSVVVAANQNEEIDTTFAKVLYNIRVPFICIKTFGLIGTIRICIKEHTIANSHEENPRPDLRLDAPFSKLIEMINETNLDEMTLEQLRHTPYILLHFKALEVFRKQRNDPEAFPSTTAERKELQAILMSFRRSSEESGTKDSENFDEAKAAVIRAFQRTTIGSSVKSILSSPQCSTSTRPFWLICEALRRFVTENNNLLPLRGTLPDMTSDSSRYTRLATLFHEKALSDAQEVLRLTREVEKERGVGDVISDDVCYRFCKNADRIRVQYGDVLDYNEETKAIVEKIRESNIDEETRNQKVDEATWMLLMRAVGRFQKEKGRYPGTNGVPVSIDAQDLKKRVEVLIREALKDEQDFTSISNKVTDTAIAEICRFGAAELHVISSYVGGIAAQEIIKLATNQYVPIDNTFIFDGHTQESATFKF,not soluble
15,MDMELTYIYHSGFALSGDGFTVIMDYYRDSEDGQAQADLNRLMDGTFSNQEAGMPEGTVHSELLRRPGKLYVLASHFHPDHFNKEVLQWREQRPDIIYIFSKDILRHRRAQKEDAVWLKKGEEYKDETLSVRAFGSTDVGVSFLLQTGGKKIFHAGDLNNWHWMDESTEAEWKGAEKNFLHELDDLYAYTPEVDVAMFPVDPRLGKEYMRGAGQFVTKIKTHIFVPMHFTPEYAKANAFRDFAEAHGVRFVSLTHRGQKIEIE,soluble
16,SSTQYSILFKQEHAHEDAIWTAAWGRSEKDGSETIVTGSLDDLVKVWKWSDEKLELQWTLEGHQLGVVSVNISQNGAIAASSSLDAHIRLWDLETGKQIKSMDAGPVDAWTVAFSPDSKYIATGSHLGKVNIFGVESGKKEHSLDTRGKFILSIAYSPDGKYLASGAIDGIINIFDIATGKLLHTLEGHAMPIRSLTFSPDSQLLVTASDDGYIKIYDVQHANLAGTLSGHGSWVLSVAFSPDDTHFVSSSSDKSIKVWDTSSRSCVNTFFDHQDQVWSVKYNPTGSKIVSAGDDRAIHIYDCPM,soluble
17,MLFLDKNLELNDTELDIYNYIVANLEKVVYMRIRDLATEAHVSTTTILRFCRKFGCNGFSEFRVKLQLYLEEQKLAQIDMADETTYIDFLKRTAQPEFKAQIQNAVEILRDRELVLFAGVGSSGVIAEYGAIYFSSLFTLALHIEDPLNHPFYHLSSKLSDKICMIAISVEGENEDIIRYIHQLKAQNCKVISITNSAKSTIARLSDANIAYYINKEMYQEANITSQLPALYTIENIAREIRTQIDKEKM,not soluble
18,MLATPGRFFEKFQKMDKVYRRFYQHELAEYQFTPNEIAVILFLYNNAPDLDTATDIVRCKGISKGLVARSVDSLCREGYLTAVREPADRRIMHLKLSEKSRPITERIAVKQKELAGKIECGITPEELRITSATLDKLLINTEQLLKGKENHAE,soluble
19,MSYSWKKILIKPESTVVDALRVIDNEALRIALVVNDEQQLLGVVTDGDIRRGLLNNLPLETPVVDIMSRSPITASVNTAKEQLVKLMESKSILAVPLMEENKVVGLETLHHLFEEKTYHNPVFIMAGGFGTRLRPLTDTCPKPMLKIGNKPILETVIRSFIKAGFVNFYISTHYMPEQIQNHFGDGSELGVKISYVHEDSPLGTGGALGLLPDDLPQDLPLIMMNGDVLTKVDFERLLDFHTENQADATMCVREYDYQIPYGVINGKGNKITSMVEKPIQRFFVNAGIYVVSPSVIQSVPKNHHIDMPTLLEQHMNERDNILMFPIHEYWLDIGRMDDFNRAQADIHTLGLDLEHHHHHH,not soluble
